Legend:
[1] = MTX polyglutamates 1 to 5 in red blood cells, MIRROR OL; type: in vivo, human; settings: during the treatment course; FIG. 2
Protocol: Blood samples were collected prior to pegloticase infusion on Day 1 and at the Weeks 4, 8, 22 and 36 Visits or at Day 1 and weeks 14, 24, and 36 visits during the Pegloticase+IMM for MTX Polyglutamate analysis for the open-label and randomized studies, respectively.
Methods: In the MIRROR OL trial, MTX (15 mg/week) was given orally 4 weeks prior to the first pegloticase dose and continued weekly, in combination with pegloticase 8 mg given intravenously every 2 weeks, for a treatment duration of up to 52 weeks. Pre-infusion samples were collected to measure MTX-PGs 1 to 5 in red blood cells at day 1, week 4, 8, 22, 24 and 36. […] Pegloticase concentrations in serum was measured using a validated enzymatic/fluorescence assay. The limit of quantification is 0.6 μg/mL. Anti-pegloticase/PEG IgG antibodies (ADA) were measured using a validated enzyme linked immunosorbent assay (ELISA). The analysis of MTX Polyglutamates was conducted by Exagen. The impact of MTX on pegloticase PK was evaluated by two methods: (1) Comparing pegloticase exposures (median Cmax and Cmin across visits) with MTX from the MIRROR OL trial to the observed levels in historical monotherapy Phase 3 studies (C0405 and C0406) (Lipsky et al., Arthritis Res Ther 16(2), 2014; Sundy et al., JAMA 306(7), 2011). […]

[2] = Pegloticase serum concentrations (Cmax, Cmin), enzymatic/fluorescence assay, MIRROR OL; type: in vivo, human; settings: with MTX Co-Treatment
Excerpt: Pharmacokinetic and Anti-drug Antibody Measurements: Serum samples for PK analysis of pegloticase were collected prior to the pegloticase infusion and after the end of infusion (prior to discharge) on Day 1 and at the Weeks 2, 4, 6, 8 and 36 Visits or weeks 2, 6, 14, 24, 36, for the open-label and randomized studies, respectively, and prior to the pegloticase infusion only at the Weeks 10, 14, 18, 22, 24 (open-label study); at the End of Pegloticase Infusions Visit (if applicable); and the Week 52/End of Study/Early Termination Visits. Visits for frequent sampling of a subset of subjects who consent for additional non-infusion visit PK sampling occurred at Weeks 1 and 7 or at week 21 for the open-label and randomized studies, respectively.
An enzymatic/fluorescence assay was used to quantitate pegloticase concentrations in serum. In the assay, pegloticase catalyzes the conversion of UA to allantoin, thus releasing hydrogen peroxide (H2O2) and carbon dioxide. In the presence of horseradish peroxidase, H2O2 reacts with a 1:1 stoichiometry with Amplex Ultra Red (Molecular Probes, Inc., Eugene, Oreg.) to generate the red fluorescence oxidation product, resorufin. The concentration of resorufin, which is determined by fluorometry, is proportional to the amount of active pegloticase present in the serum samples. The lower limit of detection established in previous studies has been determined to be 0.6 μg/mL.
Methods: In the MIRROR OL trial, MTX (15 mg/week) was given orally 4 weeks prior to the first pegloticase dose and continued weekly, in combination with pegloticase 8 mg given intravenously every 2 weeks, for a treatment duration of up to 52 weeks. Pre-infusion samples were collected to measure MTX-PGs 1 to 5 in red blood cells at day 1, week 4, 8, 22, 24 and 36. […] Pegloticase concentrations in serum was measured using a validated enzymatic/fluorescence assay. The limit of quantification is 0.6 μg/mL. Anti-pegloticase/PEG IgG antibodies (ADA) were measured using a validated enzyme linked immunosorbent assay (ELISA). The analysis of MTX Polyglutamates was conducted by Exagen. The impact of MTX on pegloticase PK was evaluated by two methods: (1) Comparing pegloticase exposures (median Cmax and Cmin across visits) with MTX from the MIRROR OL trial to the observed levels in historical monotherapy Phase 3 studies (C0405 and C0406) (Lipsky et al., Arthritis Res Ther 16(2), 2014; Sundy et al., JAMA 306(7), 2011). Overlaying observed pegloticase concentrations with MTX against the 90% prediction band of pegloticase concentrations following monotherapy based on the population PK model from the Phase 3 data (Yue et al., ASCPT. Atlanta, 2010).

Compound	Concentrations of MTX-PGs [1]	Cmax BQL, % ([2]; Quantitation Limit 0.6 μg/mL)	Cmax BQL, n/N ([2]; Quantitation Limit 0.6 μg/mL)	Cmin BQL, % ([2]; Quantitation Limit 0.6 μg/mL)	Cmin BQL, n/N ([2]; Quantitation Limit 0.6 μg/mL)	Cmax, Median (Q1, Q3) ([2]; serum, BQL: below 0.6 μg/mL)	Cmin, Median (Q1, Q3) ([2]; serum, BQL: below 0.6 μg/mL)
CN(Cc1cnc2nc(N)nc(N)c2n1)c1ccc(C(=O)N[C@@H](CCC(=O)O)C(=O)O)cc1 [MTX, methotrexate]	maintained	–	–	–	–	–	–
pegloticase	–	0%	0/14	36%	5/14	2.11 (1.65, 2.59) μg/mL	1.03 (BQL, 1.23) μg/mL
